Series [1] concerns the target T1, recombinant porcine amelogenin rP172 (porcine), P45561.
T1 chain: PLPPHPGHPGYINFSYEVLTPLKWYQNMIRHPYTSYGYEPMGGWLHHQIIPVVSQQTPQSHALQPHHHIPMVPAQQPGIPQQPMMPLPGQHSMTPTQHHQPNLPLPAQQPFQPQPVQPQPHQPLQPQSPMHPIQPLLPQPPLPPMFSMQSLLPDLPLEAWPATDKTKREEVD
Description: cryo-EM structure. The conditions noted are these: remark: other sources report otherwise.

Series [2] deals with the molecule itself. The series is described as follows: cryo-EM structure.

B1: recombinant porcine amelogenin rP172, P45561 18-189 (natural protein)
chain: PLPPHPGHPGYINFSYEVLTPLKWYQNMIRHPYTSYGYEPMGGWLHHQIIPVVSQQTPQSHALQPHHHIPMVPAQQPGIPQQPMMPLPGQHSMTPTQHHQPNLPLPAQQPFQPQPVQPQPHQPLQPQSPMHPIQPLLPQPPLPPMFSMQSLLPDLPLEAWPATDKTKREEVD
On to B1, for which, in series [1], the stoichiometry N came to 12.

B2: full-length native porcine amelogenin P173 (natural protein, UniProt P45561 17-189, looked up)
chain: MPLPPHPGHPGYINFSYEVLTPLKWYQNMIRHPYTSYGYEPMGGWLHHQIIPVVSQQTPQSHALQPHHHIPMVPAQQPGIPQQPMMPLPGQHSMTPTQHHQPNLPLPAQQPFQPQPVQPQPHQPLQPQSPMHPIQPLLPQPPLPPMFSMQSLLPDLPLEAWPATDKTKREEVD
modifications: phosphoserine at 16 (S-16); degree of phosphorylation ~85% by mass spectrometry
B2: the “stoichiometry N” value in series [2] was 12.

The values above are taken from paper PMC3752671 (Journal of structural biology, 2013).
